The values that follow come from US20210380703A1 (RIGEL PHARMACEUTICALS, published 2021).

For one experiment, the target named is T1, Human ACVR2A (human, UniProt P27037 20-135, limits assumed).
T1 construct: also called activin receptor, type II A
Kind of experiment: ELISA. Put shortly:
(§1)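 ELISA measured binding of ACVR2A-specific monoclonal antibodies to human and mouse ACVR2A. Biotinylated goat anti-human kappa light chain served as positive control and human Fc as negative control.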
(In general: An ELISA detects its analyte on a solid surface through an enzyme-linked reagent.)

In the next experiment the target is Mouse ACVR2A (mouse, UniProt P27038 20-135, limits assumed). Kind of experiment: ELISA. The method, boiled down:
as §1

In the next experiment the target is T2, Goat anti-Human Kappa.
T2 construct: Positive control of the ELISA; also called biotinylated goat anti-human kappa light chain
Kind of experiment: ELISA, positive control. The method, boiled down:
as §1
Further: test concentration or dose not given here.

T1 sequence (P27037 20-135 limits assumed): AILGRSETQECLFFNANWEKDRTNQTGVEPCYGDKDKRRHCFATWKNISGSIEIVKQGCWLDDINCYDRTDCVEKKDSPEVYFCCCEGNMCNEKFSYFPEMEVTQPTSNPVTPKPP
Chain of Mouse ACVR2A (P27038 20-135 limits assumed): as the sequence (P27037 20-135 limits assumed) above, with K20R, V73I counted along it

B1: 373_C11 (antibody, V domains shown)
VH: EVQLLESGGGLVQPGGSLRLSCAASGFTFSSYSMNWVRQAPGKGLEWVSGINYNSGYTGYADSVKGRFTISRDNSKNTLYLQMNSLRAEDTAVYYCARSANWHDTALDYWGQGTLVTVSS
VL: DIQMTQSPSSLSASVGDRVTITCRASQSILTYVNWYQQKPGKAPKLVIYAVTSRASGVPSRFSGSGSGTDFTLTISSLQPEDFATYYCQQSYETPLTFGGGTKVEIK
With B1, the optical density was determined as 3.49 OD in the experiment with Human ACVR2A, 3.47 OD with Mouse ACVR2A and 3.17 OD with Goat anti-Human Kappa.

B2: 374_A07 (antibody, V domains shown)
VH: EVQLLESGGGLVQPGGSLRLSCAASGFTFSSYSMNWVRQAPGKGLEWVSGINYNSGYKGYADSVKGRFTISRDNSKNTLYLQMNSLRAEDTAVYYCARSANWHDTALDYWGQGTLVTVSS
VL: DIQMTQSPSSLSASVGDRVTITCRASQSILSYVNWYQQKPGKAPKLLIYAVTSRASGVPSRFSGSGSGTDFTLTISSLQPEDFATYYCQQSYDLPLTFGGGTKVEIK
For the molecule B2, the optical density with Human ACVR2A worked out at 3.62 OD; with Mouse ACVR2A, 3.71 OD; in the experiment with Goat anti-Human Kappa, 3.07 OD.

B3: 373_G10 (antibody, V domains shown)
VH: EVQLLESGGGLVQPGGSLRLSCAASGFTFSDYGMNWVRQAPGKGLEWVSNINYNGGYKSYADSVKGRFTISRDNSKNTLYLQMNSLRAEDTAVYYCARSANWHDTALDYWGQGTLVTVSS
VL: DIQMTQSPSSLSASVGDRVTITCRASQSIVSYVNWYQQKPGKAPKLLIYAATSRASGVPSRFSGSGSGTDFTLTISSLQPEDFATYYCQQSYDLPLTFGGGTKVEIK
For B3, the optical density is 3.54 OD with Human ACVR2A, 3.56 OD in the experiment with Mouse ACVR2A and 3.26 OD with Goat anti-Human Kappa.

B4: 373_E07 (antibody, V domains shown)
VH: EVQLLESGGGLVQPGGSLRLSCAASGFTFSSYGMNWVRQAPGKGLEWVANINYNGGYTSYADSVKGRFTISRDNSKNTLYLQMNSLRAEDTAVYYCARSANWHDTALDYWGQGTLVTVSS
VL: DIQMTQSPSSLSASVGDRVTITCRASQSILTYVNWYQQKPGKAPKLLIYAATSLASGVPSRFSGSGSGTDFTLTISSLQPEDFATYYCQQSYETPLTFGGGTKVEIK
Consider B4, for which the figures for the optical density with Human ACVR2A, with Mouse ACVR2A and in the experiment with Goat anti-Human Kappa were 3.48 OD, 3.54 OD and 3.23 OD, respectively.

B5: 373_E05 (antibody, V domains shown)
VH: EVQLLESGGGLVQPGGSLRLSCAASGFTFDSYGMNWVRQAPGKGLEWVSNINYNGGYTSYADSVKGRFTISRDNSKNTLYLQMNSLRAEDTAVYYCARSANWHDTALDYWGQGTLVTVSS
VL: DIQMTQSPSSLSASVGDRVTITCRASQSILSYVNWYQQKPGKAPKLLIYAVTSRASGVPSRFSGSGSGTDFTLTISSLQPEDFATYYCQQSYDLPLTFGGGTKVEIK
Consider B5, for which the optical density stood at 3.54 OD with Human ACVR2A, 3.59 OD in the experiment with Mouse ACVR2A and 3.24 OD with Goat anti-Human Kappa.

B6: 373_G12 (antibody, V domains shown)
VH: EVQLLESGGGLVQPGGSLRLSCAASGFTFSSYSMNWVRQAPGKGLEWVSNINYNGGYTSYADSVKGRFTISRDNSKNTLYLQMNSLRAEDTAVYYCARSANWHDTALDYWGQGTLVTVSS
VL: DIQMTQSPSSLSASVGDRVTITCRASQSILSYLNWYQQKPGKAPKLLIYATTSLASGVPSRFSGSGSGTDFTLTISSLQPEDFATYYCQQSYNSPLTFGGGTKVEIK
For the molecule B6, the optical density worked out at 3.47 OD with Human ACVR2A, 3.29 OD with Mouse ACVR2A and 3.26 OD in the experiment with Goat anti-Human Kappa.

B7: 373_D05 (antibody, V domains shown)
VH: EVQLLESGGGLVQPGGSLRLSCAASGFTFSSYSMNWVRQAPGKGLEWVSGINYNSGYKGYADSVKGRFTISRDNSKNTLYLQMNSLRAEDTAVYYCARSANWHDTALDYWGQGTLVTVSS
VL: DIQMTQSPSSLSASVGDRVTITCRASQSILSYLNWYQQKPGKAPKLVIYAATSRASGVPSRFSGSGSGTDFTLTISSLQPEDFATYYCQQSYDSPLTFGGGTKVEIK
As for B7, the optical density with Human ACVR2A worked out at 3.68 OD; with Mouse ACVR2A, 3.73 OD; with Goat anti-Human Kappa, 3.25 OD.

B8: 373_E12 (antibody, V domains shown)
VH: EVQLLESGGGLVQPGGSLRLSCAASGFTFSSYSMNWVRQAPGKGLEWVANINYNGGYTGYADSVKGRFTISRDNSKNTLYLQMNSLRAEDTAVYYCARSANWHDTALDYWGQGTLVTVSS
VL: DIQMTQSPSSLSASVGDRVTITCRASQSILSYVNWYQQKPGKAPKLVIYAATSRASGVPSRFSGSGSGTDFTLTISSLQPEDFATYYCQQSYDTPLTFGGGTKVEIK
As for B8, the optical density was determined as 3.63 OD with Human ACVR2A, 3.33 OD in the experiment with Mouse ACVR2A and 3.12 OD with Goat anti-Human Kappa.

B9: 373_D04 (antibody, V domains shown)
VH: EVQLLESGGGLVQPGGSLRLSCAASGFTFDSYSMNWVRQAPGKGLEWVSGINYNSGYKGYADSVKGRFTISRDNSKNTLYLQMNSLRAEDTAVYYCARSANWHDTALDYWGQGTLVTVSS
VL: DIQMTQSPSSLSASVGDRVTITCRASQSILSYLNWYQQKPGKAPKLLIYAATSRHSGVPSRFSGSGSGTDFTLTISSLQPEDFATYYCQQSYDSPLTFGGGTKVEIK
Take B9: the optical density with Human ACVR2A stood at 3.68 OD; with Mouse ACVR2A it was 3.65 OD; with Goat anti-Human Kappa, 3.15 OD.

B10: 374_B04 (antibody, V domains shown)
VH: EVQLLESGGGLVQPGGSLRLSCAASGFTFSSYSMNWVRQAPGKGLEWVSNINYNSGYTGYADSVKGRFTISRDNSKNTLYLQMNSLRAEDTAVYYCARSANWHDTALDYWGQGTLVTVSS
VL: DIQMTQSPSSLSASVGDRVTITCRASQSIVSYLNWYQQKPGKAPKLLIYAVTSRASGVPSRFSGSGSGTDFTLTISSLQPEDFATYYCQQSYESPLTFGGGTKVEIK
Consider B10, for which the optical density with Human ACVR2A was 3.67 OD; with Mouse ACVR2A it was 3.64 OD; in the experiment with Goat anti-Human Kappa it was 3.3 OD.

B11: 374_B06 (antibody, V domains shown)
VH: EVQLLESGGGLVQPGGSLRLSCAASGFTFDSYSMNWVRQAPGKGLEWVAGINYNSGYKGYADSVKGRFTISRDNSKNTLYLQMNSLRAEDTAVYYCARSANWHDTHLDYWGQGTLVTVSS
VL: DIQMTQSPSSLSASVGDRVTITCRASQSILTYVNWYQQKPGKAPKLLIYAATSRASGVPSRFSGSGSGTDFTLTISSLQPEDFATYYCQQSYDTPLTFGGGTKVEIK
As for B11, the results for the optical density with Human ACVR2A, in the experiment with Mouse ACVR2A and with Goat anti-Human Kappa were 3.48 OD, 3.6 OD and 3.08 OD, respectively.

B12: 373_D01 (antibody, V domains shown)
VH: EVQLLESGGGLVQPGGSLRLSCAASGFTFDSYSMNWVRQAPGKGLEWVSGINYNSGYKSYADSVKGRFTISRDNSKNTLYLQMNSLRAEDTAVYYCARSANWHDTHLDYWGQGTLVTVSS
VL: DIQMTQSPSSLSASVGDRVTITCRASQSILSYVNWYQQKPGKAPKLVIYAATSRASGVPSRFSGSGSGTDFTLTISSLQPEDFATYYCQQSYDSPLTFGGGTKVEIK
For the molecule B12, the optical density was found to be 3.23 OD in the experiment with Human ACVR2A, 3.57 OD in the experiment with Mouse ACVR2A and 3.04 OD with Goat anti-Human Kappa.

B13: 373_E01 (antibody, V domains shown)
VH: EVQLLESGGGLVQPGGSLRLSCAASGFTFSSYGMNWVRQAPGKGLEWVSGINYNGGYKGYADSVKGRFTISRDNSKNTLYLQMNSLRAEDTAVYYCARSANWHDTALDYWGQGTLVTVSS
VL: DIQMTQSPSSLSASVGDRVTITCRASQSIVSYVNWYQQKPGKAPKLLIYAATSRHSGVPSRFSGSGSGTDFTLTISSLQPEDFATYYCQQSYNNPLTFGGGTKVEIK
As to B13, the optical density with Human ACVR2A came out at 2.35 OD; with Mouse ACVR2A, 2.56 OD; with Goat anti-Human Kappa, 2.99 OD.

B14: 373_H05 (antibody, V domains shown)
VH: EVQLLESGGGLVQPGGSLRLSCAASGFTFSDYSMNWVRQAPGKGLEWVANINYNGGYKGYADSVKGRFTISRDNSKNTLYLQMNSLRAEDTAVYYCARSANWHDTALDYWGQGTLVTVSS
VL: DIQMTQSPSSLSASVGDRVTITCRASQSILTYVNWYQQKPGKAPKLVIYAATSRASGVPSRFSGSGSGTDFTLTISSLQPEDFATYYCQQSYETPLTFGGGTKVEIK
For the molecule B14, the optical density with Human ACVR2A turned out to be 3.29 OD; in the experiment with Mouse ACVR2A, 3.29 OD; with Goat anti-Human Kappa, 3.22 OD.

B15: 373_H01 (antibody, V domains shown)
VH: EVQLLESGGGLVQPGGSLRLSCAASGFTFDSYSMNWVRQAPGKGLEWVANINYNGGYTGYADSVKGRFTISRDNSKNTLYLQMNSLRAEDTAVYYCARSANWHDTALDYWGQGTLVTVSS
VL: DIQMTQSPSSLSASVGDRVTITCRASQSILSYLNWYQQKPGKAPKLVIYAATSRASGVPSRFSGSGSGTDFTLTISSLQPEDFATYYCQQSYDNPLTFGGGTKVEIK
Regarding B15, the values for the optical density with Human ACVR2A, with Mouse ACVR2A and with Goat anti-Human Kappa were 3.1 OD, 3.28 OD and 3.12 OD, respectively.

B16: 373_D10 (antibody, V domains shown)
VH: EVQLLESGGGLVQPGGSLRLSCAASGFTFDSYSMNWVRQAPGKGLEWVSNINYNSGYKGYADSVKGRFTISRDNSKNTLYLQMNSLRAEDTAVYYCARSANWHDTALDYWGQGTLVTVSS
VL: DIQMTQSPSSLSASVGDRVTITCRASQSILSYVNWYQQKPGKAPKLLIYAATSRASGVPSRFSGSGSGTDFTLTISSLQPEDFATYYCQQSYDLPLTFGGGTKVEIK
For the molecule B16, the results for the optical density with Human ACVR2A, with Mouse ACVR2A and in the experiment with Goat anti-Human Kappa were 3.61 OD, 3.61 OD and 3.11 OD, respectively.

B17: 374_B12 (antibody, V domains shown)
VH: EVQLLESGGGLVQPGGSLRLSCAASGFTFDSYSMNWVRQAPGKGLEWVAGINYNGGYTGYADSVKGRFTISRDNSKNTLYLQMNSLRAEDTAVYYCARSANWHDTHLDYWGQGTLVTVSS
VL: DIQMTQSPSSLSASVGDRVTITCRASQSISSYLNWYQQKPGKAPKLVIYAATSRASGVPSRFSGSGSGTDFTLTISSLQPEDFATYYCQQSYDNPLTFGGGTKVEIK
As to B17, the optical density was found to be 3.49 OD with Human ACVR2A, 3.33 OD with Mouse ACVR2A and 3.05 OD with Goat anti-Human Kappa.
